For assay [1], the target named is T1, mouse Siglec-15-his protein (Acrobiosystems, Cat #: SG5-M52H7) (mouse).
T1 construct: Bought protein; also called mouse Siglec-15 protein
Description: ELISA, coated mouse Siglec-15-his. How it is done:
(§1) […] mouse Siglec-15-his protein (Acrobiosystems, Cat #: SG5-M52H7) dissolved in PBS was added to an ELISA plate at 100 μL/well for coating and the plate was incubated overnight at 4° C. The ELISA plate was then blocked with PBST (PBS+0.05% Tween 20) containing 2% BSA at 200 μL/well and incubated at 37° C. for 1 h. The ELISA plate was washed 4 times with PBST. The anti-Siglec-15 antibody diluted in a gradient (5-fold dilution, starting concentration: 6.67 nM) was added to the ELISA plate at 100 μL/well and the plate was incubated at 37° C. for 1 h. The ELISA plate was washed 4 times with PBST. The goat anti-human IgG (H+L)-HRP (1:5000, Jackson, Cat: 109-035-088) was added at 100 μL/well and the plate was incubated at 37° C. for 1 h. The ELISA plate was washed 4 times with PBST. The TMB substrate (Biopanda, Cat: TMB-S-003) was added at 100 μL/well, and the plate was incubated at room temperature for 5 min, and then the stop buffer (Solarbio, Cat #: C1058) was added at 100 μL/well to stop the reaction.

The target of assay [2] is T2, human Siglec-15 ECD-his protein (Acrobiosystems, Cat #: SG5-H52H3) (human, UniProt Q6ZMC9 20-263).
T2 construct: Bought protein; only its extracellular domain stood in the assay; also called human Siglec-15 protein; recombinant human Siglec-15 protein; not shown: his tag
T2 sequence: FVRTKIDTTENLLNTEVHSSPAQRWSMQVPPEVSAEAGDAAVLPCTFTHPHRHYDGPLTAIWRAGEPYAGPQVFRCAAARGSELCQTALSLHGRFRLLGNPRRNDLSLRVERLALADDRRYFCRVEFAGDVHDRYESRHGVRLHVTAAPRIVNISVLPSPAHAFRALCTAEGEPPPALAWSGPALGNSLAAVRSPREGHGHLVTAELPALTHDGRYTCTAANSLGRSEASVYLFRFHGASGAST
In words: ELISA, coated human Siglec-15 ECD-his. How it is done:
as §1, with “human Siglec-15 ECD-his” for “mouse Siglec-15-his”, “SG5-H52H3)” for “SG5-M52H7)”, “Cat #:” for “Cat:”
Background: ELISA stands for enzyme-linked immunosorbent assay.

Assay [3] has as its target T3, cynomolgus monkey Siglec-15-his protein (Acrobiosystems, Cat #: SG5-C52H6) (cynomolgus monkey, UniProt Q6ZMC9 20-263 (human entry)).
T3 construct: Bought protein; also called cynomolgus monkey Siglec-15 protein; not shown: his tag
T3 chain: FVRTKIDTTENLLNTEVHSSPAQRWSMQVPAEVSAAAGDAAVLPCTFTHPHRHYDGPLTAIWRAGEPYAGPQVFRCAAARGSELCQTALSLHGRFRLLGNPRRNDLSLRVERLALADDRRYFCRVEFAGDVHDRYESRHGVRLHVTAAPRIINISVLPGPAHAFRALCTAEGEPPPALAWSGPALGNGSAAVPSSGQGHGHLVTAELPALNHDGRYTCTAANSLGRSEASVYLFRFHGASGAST
Description: ELISA, coated cynomolgus monkey Siglec-15-his. How it is done:
[…] cynomolgus monkey Siglec-15-his protein (Acrobiosystems, Cat #: SG5-C52H6) dissolved in PBS was added to an ELISA plate at 100 μL/well for coating and the plate was incubated overnight at 4° C. The ELISA plate was then blocked with PBST (PBS+0.05% Tween 20) containing 2% BSA at 200 μL/well and incubated at 37° C. for 1 h. The ELISA plate was washed 4 times with PBST. The anti-Siglec-15 antibody diluted in a gradient (5-fold dilution, starting concentration: 6.67 nM) was added to the ELISA plate at 100 µL/well and the plate was incubated at 37° C. for 1 h. The ELISA plate was washed 4 times with PBST. The goat anti-human IgG (H+L)-HRP (1:5000, Jackson, Cat #: 109-035-088) was added at 100 μL/well and the plate was incubated at 37° C. for 1 h. The ELISA plate was washed 4 times with PBST. The TMB substrate (Biopanda, Cat #: TMB-S-003) was added at 100 μL/well, and the plate was incubated at room temperature for 5 min, and then the stop buffer (Solarbio, Cat #: C1058) was added at 100 μL/well to stop the reaction.

Assay [4] deals with T4, human Siglec-15 on CHO-K1/human Siglec-15 cells (KYinno, Beijing) (human, UniProt Q6ZMC9 20-328).
T4 sequence: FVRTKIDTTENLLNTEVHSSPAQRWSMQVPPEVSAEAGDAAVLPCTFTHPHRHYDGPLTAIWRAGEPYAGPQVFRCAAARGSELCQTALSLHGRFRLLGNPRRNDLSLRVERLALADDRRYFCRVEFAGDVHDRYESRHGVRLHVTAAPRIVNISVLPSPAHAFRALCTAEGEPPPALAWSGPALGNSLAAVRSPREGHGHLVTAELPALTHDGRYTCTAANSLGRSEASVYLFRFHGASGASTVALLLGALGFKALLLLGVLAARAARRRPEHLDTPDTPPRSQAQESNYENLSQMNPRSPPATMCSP
In words: flow cytometry on CHO-K1/human Siglec-15 cells. How it is done:
CHO-K1/human Siglec-15 cells (KYinno, Beijing) were adjusted to a density of 1×10⁶/mL with PBS, and the cell suspension was added to a 96-well V-bottom plate at 100 μL/well. The 96-well V-bottom plate was centrifuged at 1000 rpm for 5 min and washed once with PBS+2% FBS. The cells were resuspended in […] of antibody diluted in a gradient (5-fold dilution, starting concentration: 500 nM) and incubated at 4° C. for 1 h, and PR300066 and hIgG1 were used as positive control and negative control, respectively. After 1 h, the cells were washed twice with PBS+2% FBS. The cells were incubated with 100 μL of Alexa Fluor 488 goat anti-human IgG (Jackson, Cat #: 109-545-098) at 4° C. for 1 h in the dark and then washed twice with PBS+2% FBS. The cells were then resuspended in 200 μL of PBS+2% FBS. The fluorescence intensity of the cells was analyzed using a BD FACSCanto™ II flow cytometer.
For orientation: Flow cytometry measures light scatter and fluorescence of single cells or particles in a stream.

Assay [5] addresses T2, human Siglec-15 ECD-his protein …. Description: BLI (Octet RED96), antibody on AHC sensor, Siglec-15 ECD-his as analyte. How it is done: Recombinant Human Siglec-15 Protein Affinity was determined using an Octet RED96 instrument (ForteBio) and an anti-human IgG Fc capture sensor (AHC biosensor, ForteBio, Cat #: 18-5060) according to the detailed procedures and methods provided by the manufacturer. Specifically, candidate antibodies were each diluted to a final concentration of 6 µg/mL and directly immobilized on AHC biosensors for kinetic measurements. The antigenic protein Siglec-15 ECD-his protein (Acrobiosystems, Cat #: SG5-H52H3) was diluted with 10× Kinetics buffer to 3 concentrations of 60 nM, 30 nM, and 15 nM separately and injected as the analyte for 120 s with a dissociation time of 400 s and then subjected to regeneration with 10 mM glycine HCl (pH 1.5) for 15 s. The association rate (kon) and dissociation rate (kdis) were calculated using a simple one-to-one Languir binding model (Octet Red96 data analysis software). The equilibrium dissociation constant (kD) was calculated as the ratio of kdis/kon.
(In BLI a coated tip is dipped into the sample, and binding shifts an interference pattern.)

Broadly, the EC50 is the concentration at which the effect is half-maximal. By Kd is commonly meant the constant that tells how readily two partners part at equilibrium. One may read the koff as the rate constant with which the complex falls apart. For orientation: kon means a measure of how fast the partners come together.

B1: PR300526 (antibody, human IgG1, kappa, V domains shown)
VH: QVQLVQSGAEVKKPGASVKVSCKASGYTFTDYYMHWVRQAPGQGLEWMGWINPNSDGTNYAQRFQGRVTMTRDTSISTAYMELSRLRSDDTAVYYCARGRLLRFFDWLDVMDAWGQGTSVTVSS
VL: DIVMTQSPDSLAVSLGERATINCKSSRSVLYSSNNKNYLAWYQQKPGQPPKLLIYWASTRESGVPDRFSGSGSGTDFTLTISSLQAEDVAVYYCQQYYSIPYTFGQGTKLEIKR
Consider B1, for which the EC50 worked out at 0.104 nM in assay [1], 0.02 nM in assay [2] and 0.071 nM in assay [3].

B2: PR300659 (antibody, human IgG1, kappa, V domains shown)
VH: QVQLVESGGGVVQPGRSLRLSCAASGFIFSSYDIYWVRQAPGKGLEWVAVIWHDGSNKYYADSVKGRFTISRDNSKNTVYLQMNSLRAEDTAVYYCARDTHSYGSRIYYDYNYGMDVWGQGTTVTVSS
VL: DIQMTQSPSSLSASVGDRVSITCRASQSISSYLNWYQQKPGKAPKLLIYAASSLQSGVPSRFSGSGSGADFTLTISSLQPEDFATYYCQQTYSPPFTFGPGTKVDIKR
For B2, it took 0.013 nM to reach a half-maximal effect in assay [1] (EC50). For the same molecule, the EC50 in assay [2] was 0.01 nM. Further, the EC50 in assay [3] was approximately 0.011 nM. Further, in assay [4], the EC50 is 3.45 nM and the “Maximum (MFI)” value was found to be 24000 MFI. In assay [5], this molecule displayed a Kd of 0.00305 nM, a koff of 3.25e-06 s⁻¹ and a kon of 1.07e+06 M⁻¹ s⁻¹.

B3: PR300670 (antibody, human IgG1, kappa, V domains shown)
VH: QVQLVESGGGVVQPGRSLRLSCVASGFTFSTYGIHWVRQAPGKGLDWVSVIWYDGSHKYYADSVQDRFTISRDNSKNTLYLQMNSLRAEDTAVYYCAREGMITMVRGVIIDYQYHGMDVWGQGTTVTVSS
VL: DIQMTQSPSTLSASVGDRVTITCRASQSIGRRLAWYQQKPGKAPKLLIYKASSLESGVPSRFSGSGSGTEFTLTISSPQPDDFATYYCQQYHSYSYTFGQGTKLEIKR
Consider B3, for which, in assay [1], the EC50 came to 0.079 nM. Also, in assay [2], the EC50 was found to be 0.018 nM. Also, the midpoint of the response in assay [3], the EC50, lay at 0.025 nM. Moreover, in assay [4], the EC50 is 1.49 nM and the “Maximum (MFI)” value stood at 16600 MFI. In assay [5], this molecule showed a Kd of 0.0858 nM, a koff of 3.09e-05 s⁻¹ and a kon of 361000 M⁻¹ s⁻¹.

For the origin of these results see patent US20260070974A1 (NONA BIOSCIENCES SUZHOU, published 2026).
